# From publication PMC2916699 (Journal of molecular biology, 2009)
# Where no end group is shown, it is not given here. The star is where a group is joined. Dansyl = CN(C)c1cccc2c(S(=O)(=O)*)cccc12
# Molecular target: protein farnesyltransferase (FTase), wild type (UniProt Q04631 1-377; Q02293 1-437)
# Test: fluorescence polarisation
row,Kd,Binder
1,7 ± 3 nM,Dansyl-TKCVVT [dansyl-TKCVVT]
2,6 ± 1 nM,Dansyl-TKCTKF [dansyl-TKCTKF]
3,7 ± 1 nM,Dansyl-TKCTLQ [dansyl-TKCTLQ]
4,3.4 ± 0.8 nM,Dansyl-TKCSIS [dansyl-TKCSIS]
5,3.4 ± 0.7 nM,Dansyl-TKCSLG [dansyl-TKCSLG]
6,5 ± 2 nM,Dansyl-TKCSLC (cysteine pairing not given here) [dansyl-TKCSLC]
7,12 ± 4 nM,Dansyl-TKCYVM [dansyl-TKCYVM]
8,6 ± 2 nM,Dansyl-TKCTMS [dansyl-TKCTMS]

# The remaining lines, values behind:
row,Binder,Kd
1,Dansyl-TKCIVA [dansyl-TKCIVA],5 ± 2 nM
2,Dansyl-TKCAVQ [dansyl-TKCAVQ],13 ± 3 nM
3,Dansyl-TKCLTS [dansyl-TKCLTS],5 ± 1 nM
4,Dansyl-TKCITQ [dansyl-TKCITQ],3.6 ± 0.8 nM
5,Dansyl-TKCSLM [dansyl-TKCSLM],8 ± 2 nM
6,Dansyl-TKCNIM [dansyl-TKCNIM],5 ± 1 nM
7,Dansyl-TKCRIS [dansyl-TKCRIS],12 ± 2 nM
8,Dansyl-TKCNLQ [dansyl-TKCNLQ],8 ± 1 nM
9,Dansyl-TKCSIM [dansyl-TKCSIM],6 ± 2 nM
10,Dansyl-TKCGIM [dansyl-TKCGIM],3.6 ± 0.7 nM
11,Dansyl-TKCLVM [dansyl-TKCLVM],6 ± 2 nM
